Assay results: patent US20230212587A1, “Mutant Hydroxyphenylpyruvate Dioxygenase Polypeptide, Encoding Gene Thereof and Use Therefor” (Beijing Dabeinong Biotechnology Co., Ltd., priority 2019, published 2023)

Test system: Arabidopsis thaliana T1 plants
Assay: Topramezone tolerance of transgenic Arabidopsis thaliana T1 plants (pesticide damage grade by bleached leaf area, score, resistance evaluation)
Assay type: in vivo
Conditions: for Classification and statistics of pesticide damage grade Grade 0 / Classification and statistics of pesticide damage grade Grade 1 / Classification and statistics of pesticide damage grade Grade 2 / Classification and statistics of pesticide damage grade Grade 3: number of plants (of 16) in this grade; for Classification and statistics of pesticide damage grade: Grade 0 / Classification and statistics of pesticide damage grade: Grade 1 / Classification and statistics of pesticide damage grade: Grade 2 / Classification and statistics of pesticide damage grade: Grade 3: number of plants
Procedure, shortened: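 Eighteen days after sowing, wild-type and HPPD-transgenic T1 Arabidopsis receive a topramezone spray at 1×, 2× or 4× field rate (25–100 g ai/ha) or water. Seven days later each plant is graded by its proportion of bleached leaf area.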

[1] = HPPDs from different species, topramezone 25 g ai/ha (1x), 7 DAT
[2] = HPPDs from different species, topramezone 100 g ai/ha (4x), 7 DAT
[3] = topramezone 25 g ai/ha (1x), HPPDs from ecotypes of Triticum aestivum
[4] = topramezone 100 g ai/ha (4x), HPPDs from ecotypes of Triticum aestivum

B1: NtHPPD-02: native Nicotiana tabacum HPPD, SEQ ID NO: 111 (protein, listed as Nicotiana tabacum)
chain: MGKLETVTTTSAAAADDSSELTTNFKLVGFKNFIRTNPRSDFFSVKSFHHIEFWCGDATNTARRFSWSLGMPIAAKSDLSTGNSVHASYLLRPVSGSLQFLFTAPYSPSISTPSSAAIPSFSTSTHRSFTTTHGLGVRAVALEVENAYTAFSASVSRGAKPMFEPVTIDEQVAMAEVHLYGDVVLRFVSYLKDADNLVFLPGFEAMDETASYKELDYGIRRLDHAVGNVPELGPVVDYIKRFTGFHEFAEFTAEDVGTAESGLNSMVLANNDETVLLPLNEPVYGTKRKSQIQTYLEHNEGAGVQHLALVTEDIFKTLTEMRKRSGVGGFEFMPSPPPTYYKNLKNRAGDVLSDEQILACEELGILVDRDDQGTLLQIFTKPVGDRPTIFIEIIQRIGCMLKDGKGQVYQKGGCGGFGKGNFSELFRSIEEYEKTLEAKQANQVAAA
modifications: NtHPPD Amino Acid Sequence
With B1 the “Classification and statistics of pesticide damage grade Grade 0” value [1] was 0, the “Classification and statistics of pesticide damage grade Grade 1” value [1] was 0 and the “Classification and statistics of pesticide damage grade Grade 2” value [1] was 0. For the same molecule, the “Classification and statistics of pesticide damage grade Grade 3” value [1] was 16, the “Classification and statistics of pesticide damage grade Grade 0” value [2] was 0 and the “Classification and statistics of pesticide damage grade Grade 1” value [2] was 0. For the same molecule, the “Classification and statistics of pesticide damage grade Grade 2” value [2] was 0, the “Classification and statistics of pesticide damage grade Grade 3” value [2] was 16 and the Scores (HPPDs from different species, score for pesticide damage 0-100, topramezone 25 g ai/ha (1x), 7 DAT) was 100. The Scores (HPPDs from different species, score for pesticide damage 0-100, topramezone 100 g ai/ha (4x), 7 DAT) was 100, the Resistance evaluation [1] was “non-resistant (non-resistant plants (scores 68-100))” and the Resistance evaluation [2] was “non-resistant (non-resistant plants (scores 68-100))”.

B2: TaHPPD1m-F372A-02: Triticum aestivum ecotype 1 HPPD mutant F372A, SEQ ID NO: 180 (protein)
chain: MMNAHANLALAALAFPAHMPNSKSSHIRSRRTRRPLLPLTMAAHPPIRTNIGMSTHGSASGGGEQAGISSTDRFRMIDFHHVEFWCADAASAAARFSFGLGVPLAAESGLSTGNTAHASHLLHSRSGSLALLFSAPYAQGDAVTASVPSFDADAARRFTADHGLAVRAMAVRVPDAGEAFRTSVDAGARPSFAPAELGHGFELAEVQLYGDVVLRFVSHPDDTAIPFLPGFGSVPSSGATPDYGLTRFDHIVGDVPHLAPVAAYIAGFTGFHEFSRFTADQVGTAESSLNVVVLANNSENVLLTVVEPVHGTKRRSQVQTYLDHHGGPGVQHLAMASNDVLGTLRKIRGRSTMGGFELLPPPPASYYDDVRRRAGDVLSEAQIKGCQELGVRVDKDDHGGVVLQIATKAAGDRPTLLLEFIQRIGCMDKDENGQEYQRGGCGGFGQGNVTELFKSIEDYEKSLDASARLAA
modifications: TaHPPD1m-F372A Amino Acid Sequence
In the case of B2, the Resistance evaluation [3] is reported as “highly resistant (highly resistant plants (scores 0-15))”, the Scores [3] is reported as 0 and the “Classification and statistics of pesticide damage grade: Grade 0” value [3] is reported as 16. The “Classification and statistics of pesticide damage grade: Grade 1” value [3] was 0, the “Classification and statistics of pesticide damage grade: Grade 2” value [3] was 0 and the “Classification and statistics of pesticide damage grade: Grade 3” value [3] was 0. For the same molecule, the Resistance evaluation [4] was “highly resistant (highly resistant plants (scores 0-15))”, the Scores [4] was 2 and the “Classification and statistics of pesticide damage grade: Grade 0” value [4] was 15. For the same molecule, the “Classification and statistics of pesticide damage grade: Grade 1” value [4] was 1, the “Classification and statistics of pesticide damage grade: Grade 2” value [4] was 0 and the “Classification and statistics of pesticide damage grade: Grade 3” value [4] was 0.
